According to patent US20220363763A1 (ABL BIO, published 2022):

How the values were obtained:
[1] = molecular target: T1, recombinant human LAG-3-ECD-human IgG1 fusion protein (human, UniProt P18627 23-450, biotin-labeled in the MHC class II blocking assays); assay: ELISA as Example 2.2, coated human LAG3 ECD-Fc
T1 construct: extracellular domain; also called LAG-3-huFc; LAG-3-ECD-huFc; not shown: human IgG1 Fc
T1 sequence (looked up): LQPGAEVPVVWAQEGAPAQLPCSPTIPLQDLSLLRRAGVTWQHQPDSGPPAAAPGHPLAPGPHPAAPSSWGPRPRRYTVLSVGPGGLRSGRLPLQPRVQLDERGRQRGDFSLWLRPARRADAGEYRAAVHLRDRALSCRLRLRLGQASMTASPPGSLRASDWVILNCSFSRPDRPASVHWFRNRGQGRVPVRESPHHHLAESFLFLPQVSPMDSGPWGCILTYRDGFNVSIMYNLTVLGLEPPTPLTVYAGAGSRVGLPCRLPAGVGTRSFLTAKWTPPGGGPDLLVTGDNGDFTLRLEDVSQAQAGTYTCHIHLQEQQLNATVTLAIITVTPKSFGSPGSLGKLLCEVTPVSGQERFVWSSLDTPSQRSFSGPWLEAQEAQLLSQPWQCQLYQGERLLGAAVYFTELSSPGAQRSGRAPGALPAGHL
Method: To evaluate the capability of the anti-LAG-3 antibodies to bind to human, rat, and mouse LAG3 the antibodies identified in Example 2.1 were evaluated for their binding property through ELISA. The human, rat and mouse LAG3 ECD-Fc protein were coated to ELISA plate at 1 μg/ml with 100 μl/well. Antibodies from Example 1 were serially diluted with ELISA diluent buffer. […] The resulting plates were washed and then labeled with anti-human IgG(Fab)-HRP antibody. The S31 can only bind to human LAG3. The S27 and T99 can bind to human LAG3 and rat/mouse LAG3 with lower potency. The S119 antibody can bind to human, rat and mouse LAG3 at high potency (FIGS. 22A-22D).

[2] = molecular target: T2, human LAG3 (construct not stated) (human, UniProt P18627 23-450, limits assumed); assay: BLI Octet Red 96, affinity ranking
T2 construct: also called human LAG3 protein; antigen
T2 sequence (looked up): T1 sequence (looked up)

[3] = molecular target: T3, recombinant his-tag human LAG3-ECD protein (human, UniProt P18627 23-450); assay: SPR Biacore T200, capture method as Example 2.7
T3 construct: extracellular domain; not shown: his tag
T3 sequence (looked up): T1 sequence (looked up)

human LAG3 on cells [4] = molecular target: T4, human LAG3 on cells (human, UniProt P18627 23-525); assay: flow cytometry on hLAG3-expressing Jurkat cells
T4 construct: whole, on cells; also called Jurkat-LAG3
T4 sequence (looked up): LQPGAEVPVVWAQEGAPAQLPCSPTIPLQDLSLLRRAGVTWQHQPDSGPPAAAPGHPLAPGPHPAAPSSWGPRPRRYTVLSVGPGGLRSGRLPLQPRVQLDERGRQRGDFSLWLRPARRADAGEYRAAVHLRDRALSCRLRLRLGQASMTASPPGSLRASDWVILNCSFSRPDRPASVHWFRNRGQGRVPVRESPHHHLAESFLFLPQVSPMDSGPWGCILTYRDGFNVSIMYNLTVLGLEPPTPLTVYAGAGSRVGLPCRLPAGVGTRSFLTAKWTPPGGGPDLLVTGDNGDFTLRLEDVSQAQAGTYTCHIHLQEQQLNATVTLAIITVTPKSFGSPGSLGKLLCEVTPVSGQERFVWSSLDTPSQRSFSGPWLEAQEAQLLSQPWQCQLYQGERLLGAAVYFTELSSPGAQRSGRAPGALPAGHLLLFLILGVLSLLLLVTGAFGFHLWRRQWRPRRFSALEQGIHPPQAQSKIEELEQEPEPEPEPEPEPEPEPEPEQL
Method: (§1) To further confirm affinity matured anti-LAG-3 antibodies could bind to cell-derived human LAG3, both inducible hLAG3 expressed Jurkat cells and activated PBMCs were used to test the binding capability of B3807b and B3810. In brief, Jurkat cells were resuspended in FACS buffer. Anti-LAG3 antibodies and isotype control were 4-fold serially diluted in FACS buffer with a dose ranging from 20 nM to 30 pM. The serially diluted antibodies were added to the cell suspension and incubated for 30 minutes on ice. Then after removal of unbound antibodies, cells were stained with anti-human IgG conjugated with Alexa Fluor 633 (Thermo, A21091). Fluorescence measurement was acquired on FACSCelesta flow cytometer and analyzed in Flowjo to determine the mean fluorescence intensities (MFI). To test anti-LAG3 antibodies' ability of binding to native human LAG3, PBMCs from health donor were stimulated with anti-CD3 (BD, 555336) and anti-CD28 (BD, 555725) both at a concentration of 1 ug/ml. Following 3 days' stimulation, cells were harvested and incubated with anti-LAG3 antibodies for 30 mins on ice. The cells were stained with anti-human CD4 and anti-human IgG. Analysis of antibodies binding to CD4+ cells were carried out on FACSCelesta flow cytometry. […] FIG. 31 is a graph showing the binding curve of anti-LAG3 antibodies.

human LAG3 on cells [5] = molecular target: T4, human LAG3 on cells; assay: flow cytometry on activated CD4 T cells
Method: as §1

[6] = molecular target: T2, human LAG3 (construct not stated); assay: BLI Octet Red 96, full kinetics, antigen 50-3.125 nM
Method: The binding affinity was calculated by software in Octet® RED96 System.

human LAG3 on cells [7] = molecular target: T4, human LAG3 on cells; assay: flow cytometry (MFI) on activated CD4 T cells, lower panel; EC50 table has no unit, x axis Concentration (nM); Table 31 of the text prints the rounded 0.77
Method: as §1

human LAG3 on cells [8] = molecular target: T4, human LAG3 on cells; assay: flow cytometry (MFI) on Jurkat-LAG3 cells, upper panel; EC50 table has no unit, x axis Concentration (nM); Table 31 of the text prints the rounded 1.2
Method: as §1

EC50 [1]: 6.5 nM
Kd [2]: 21.6 nM
koff [2]: 0.00234 s⁻¹
kon [2]: 108000 M⁻¹ s⁻¹
Kd [3]: 14 nM
koff [3]: 0.03 s⁻¹
kon [3]: 2.2e+06 M⁻¹ s⁻¹
EC50 (human LAG3 on cells [4]): 1.2 nM
EC50 (human LAG3 on cells [5]): 0.77 nM
Kd [6]: 18.2 nM
koff [6]: 0.0019 s⁻¹
kon [6]: 104000 M⁻¹ s⁻¹
EC50 (human LAG3 on cells [7]): 0.767 nM
EC50 (human LAG3 on cells [8]): 1.23 nM
B1: 147H-13 (antibody, V domains shown)
VH: EVQLVQSGAEVKKPGASVKVSCKASGYTFTNYWLGWIKQAPGQGLEWIGDIYPGGDYINYNEKFKGKATLTADTSISTAYMELSRLRSDDTAVYYCARPNLPGDYWGQGTTVTVSS
VL: DIVMTQSPLSLPVTPGEPASISCRSSKSLLHSNGITYLYWYLQKPGQSPQLLIYQVSNLASGVPDRFSGSGSGTDFTLKISRVEAEDVGVYYCAQNLELPWTFGGGTKVEIK
notes: Common light chain; human gamma 1 / kappa constant domains; also called 147H4-13
